In paper PMC10397247:
Like-named read-outs stand apart in the source and are kept apart here.

What was measured:
[1] = target: T1, 4H327-AA; assay: two-hybrid library CCmax;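 further: natural log of median RNA to DNA barcode read ratio; higher means stronger binding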
T1 chain: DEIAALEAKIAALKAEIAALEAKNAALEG

[2] = target: T2, 4H3605-AA; assay: two-hybrid library CCmax; settings: mean of both orientations;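 further: natural log of median RNA to DNA barcode read ratio; higher means stronger binding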
T2 chain: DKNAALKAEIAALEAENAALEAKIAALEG

[3] = target: T3, 4H3625-AA; assay: two-hybrid library CCmax; settings: mean of both orientations;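 further: natural log of median RNA to DNA barcode read ratio; higher means stronger binding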
T3 chain: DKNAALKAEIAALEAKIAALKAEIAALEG

[4] = target: T4, 4H3664-AA; assay: two-hybrid library CCmax; settings: mean of both orientations;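 further: natural log of median RNA to DNA barcode read ratio; higher means stronger binding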
T4 chain: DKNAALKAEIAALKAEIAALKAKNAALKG

[5] = target: T5, 4H369-AA; assay: two-hybrid library CCmax; settings: mean of both orientations
T5 chain: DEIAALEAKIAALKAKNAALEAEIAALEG

[6] = target: T6, 4H3922-AA; assay: two-hybrid library CCmax; settings: mean of both orientations
T6 chain: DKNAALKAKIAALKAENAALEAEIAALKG

[7] = target: T7, 4H4033-AA; assay: two-hybrid library CCmax; settings: mean of both orientations
T7 chain: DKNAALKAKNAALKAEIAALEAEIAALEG

[8] = target: T8, 4H481-AA; assay: two-hybrid library CCmax; settings: mean of both orientations
T8 chain: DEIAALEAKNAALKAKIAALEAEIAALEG

[9] = target: T9, 4H55-AA; assay: two-hybrid library CCmax; settings: mean of both orientations
T9 chain: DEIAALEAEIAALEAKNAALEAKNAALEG

[10] = target: T10, 4H662-AA; assay: two-hybrid library CCmax; settings: mean of both orientations
T10 chain: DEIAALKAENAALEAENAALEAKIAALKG

[11] = target: T11, P6mS; assay: two-hybrid library CC1
T11 chain: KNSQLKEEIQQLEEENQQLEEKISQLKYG

[12] = target: T12, P7; assay: two-hybrid library CC1; settings: mean of both orientations
T12 chain: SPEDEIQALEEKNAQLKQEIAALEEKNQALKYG

[13] = target: T13, P7mS; assay: two-hybrid library CC1; settings: mean of both orientations
T13 chain: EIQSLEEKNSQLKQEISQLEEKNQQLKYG

[14] = target: T14, P8; assay: two-hybrid library CC1; settings: mean of both orientations
T14 chain: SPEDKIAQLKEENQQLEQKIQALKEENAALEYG

[15] = target: T15, P8mS; assay: two-hybrid library CC1; settings: mean of both orientations
T15 chain: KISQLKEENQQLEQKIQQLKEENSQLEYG

[16] = target: T16, P9; assay: two-hybrid library CC1; settings: mean of both orientations
T16 chain: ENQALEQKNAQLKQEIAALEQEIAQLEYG

[17] = target: T17, 4H3057-bA; assay: two-hybrid library CCNG1
T17 chain: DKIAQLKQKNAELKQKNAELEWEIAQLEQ

[18] = target: T18, 4H319-bA; assay: two-hybrid library CCNG1
T18 chain: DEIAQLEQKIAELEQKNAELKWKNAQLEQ

[19] = target: T19, 4H3277-bA; assay: two-hybrid library CCNG1
T19 chain: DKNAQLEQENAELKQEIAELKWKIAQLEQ

[20] = target: T20, 4H348-bA; assay: two-hybrid library CCNG1
T20 chain: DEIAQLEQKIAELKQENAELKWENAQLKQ

[21] = target: T21, 4H40-bA; assay: two-hybrid library CCNG1
T21 chain: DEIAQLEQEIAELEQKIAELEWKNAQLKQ

[22] = target: T22, 4H477-bA; assay: two-hybrid library CCNG1
T22 chain: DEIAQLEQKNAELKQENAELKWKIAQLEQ

[23] = target: T23, 4H492-bA; assay: two-hybrid library CCNG1
T23 chain: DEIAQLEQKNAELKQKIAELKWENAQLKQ

[24] = target: T24, 4H741-bA; assay: two-hybrid library CCNG1
T24 chain: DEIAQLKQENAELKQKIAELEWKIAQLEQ

[25] = target: T25, APC2405-AA; assay: two-hybrid library CCmax
T25 chain: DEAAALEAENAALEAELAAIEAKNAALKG

[26] = target: T26, APC3645-AA; assay: two-hybrid library CCmax; settings: mean of both orientations
T26 chain: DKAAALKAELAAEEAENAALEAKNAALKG

[27] = target: T27, APC4011-AA; assay: two-hybrid library CCmax; settings: mean of both orientations
T27 chain: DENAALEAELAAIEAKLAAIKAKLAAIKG

[28] = target: T28, APC4264-AA; assay: two-hybrid library CCmax; settings: mean of both orientations
T28 chain: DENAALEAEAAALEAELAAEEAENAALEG

[29] = target: T29, APC4436-AA; assay: two-hybrid library CCmax; settings: mean of both orientations
T29 chain: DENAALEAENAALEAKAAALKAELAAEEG

[30] = target: T30, APC5383-AA; assay: two-hybrid library CCmax; settings: mean of both orientations
T30 chain: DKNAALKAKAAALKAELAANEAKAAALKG

[31] = target: T31, APC6108-AA; assay: two-hybrid library CCmax; settings: mean of both orientations
T31 chain: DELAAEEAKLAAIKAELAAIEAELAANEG

[32] = target: T32, APC7099-AA; assay: two-hybrid library CCmax; settings: mean of both orientations
T32 chain: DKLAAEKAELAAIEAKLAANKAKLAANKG

[33] = target: T33, APC8191-AA; assay: two-hybrid library CCmax; settings: mean of both orientations
T33 chain: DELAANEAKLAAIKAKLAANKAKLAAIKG

[34] = target: T34, APC8910-AA; assay: two-hybrid library CCmax; settings: mean of both orientations
T34 chain: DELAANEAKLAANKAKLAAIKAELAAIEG

[35] = target: T35, APC9096-AA; assay: two-hybrid library CCmax; settings: mean of both orientations
T35 chain: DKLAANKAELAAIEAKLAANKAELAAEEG

[36] = target: T36, APC9319-AA; assay: two-hybrid library CCmax; settings: mean of both orientations
T36 chain: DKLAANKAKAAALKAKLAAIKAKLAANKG

[37] = target: T37, 4H3057-bN; assay: two-hybrid library CCNG1
T37 chain: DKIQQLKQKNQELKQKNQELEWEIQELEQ

[38] = target: T38, 4H319-bN; assay: two-hybrid library CCNG1
T38 chain: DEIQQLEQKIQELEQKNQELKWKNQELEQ

[39] = target: T39, 4H3277-bN; assay: two-hybrid library CCNG1
T39 chain: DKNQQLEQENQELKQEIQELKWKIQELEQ

[40] = target: T40, 4H348-bN; assay: two-hybrid library CCNG1
T40 chain: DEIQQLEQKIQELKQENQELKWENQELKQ

[41] = target: T41, 4H40-bN; assay: two-hybrid library CCNG1
T41 chain: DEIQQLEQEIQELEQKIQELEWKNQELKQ

[42] = target: T42, 4H477-bN; assay: two-hybrid library CCNG1
T42 chain: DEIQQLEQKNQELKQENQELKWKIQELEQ

[43] = target: T43, 4H492-bN; assay: two-hybrid library CCNG1
T43 chain: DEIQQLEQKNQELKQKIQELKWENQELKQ

[44] = target: T44, 4H741-bN; assay: two-hybrid library CCNG1
T44 chain: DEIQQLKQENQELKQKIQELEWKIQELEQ

[45] = target: T45, 4H3041-bH; assay: two-hybrid library CCNG1
T45 chain: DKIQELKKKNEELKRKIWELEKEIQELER

[46] = target: T46, 4H3297-bH; assay: two-hybrid library CCNG1
T46 chain: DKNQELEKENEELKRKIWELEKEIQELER

[47] = target: T47, 4H3364-bH; assay: two-hybrid library CCNG1
T47 chain: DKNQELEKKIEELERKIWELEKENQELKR

[48] = target: T48, 4H3381-bH; assay: two-hybrid library CCNG1
T48 chain: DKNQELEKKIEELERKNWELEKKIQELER

[49] = target: T49, 4H349-bH; assay: two-hybrid library CCNG1
T49 chain: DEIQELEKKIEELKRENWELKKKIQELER

[50] = target: T50, 4H56-bH; assay: two-hybrid library CCNG1
T50 chain: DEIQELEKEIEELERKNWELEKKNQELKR

[51] = target: T51, 4H730-bH; assay: two-hybrid library CCNG1
T51 chain: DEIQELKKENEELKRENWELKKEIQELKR

[52] = target: T52, 4H796-bH; assay: two-hybrid library CCNG1
T52 chain: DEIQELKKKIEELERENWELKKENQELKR

[53] = target: T53, 4H932-bH; assay: two-hybrid library CCNG1
T53 chain: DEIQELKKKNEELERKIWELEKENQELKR

[54] = target: T54, 4H949-bH; assay: two-hybrid library CCNG1
T54 chain: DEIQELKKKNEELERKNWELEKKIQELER

[55] = target: T55, O7-bH; assay: two-hybrid library CCNG1
T55 chain: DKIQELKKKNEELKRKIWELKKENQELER

[56] = target: T56, O8-bH; assay: two-hybrid library CCNG1
T56 chain: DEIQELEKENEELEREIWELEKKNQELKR

[57] = target: T57, O9-bH; assay: two-hybrid library CCNG1
T57 chain: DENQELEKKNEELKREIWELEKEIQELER

[58] = target: T58, O7-bN; assay: two-hybrid library CCNG1
T58 chain: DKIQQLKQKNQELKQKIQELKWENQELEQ

[59] = target: T59, O8-bN; assay: two-hybrid library CCNG1
T59 chain: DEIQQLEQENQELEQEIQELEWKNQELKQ

[60] = target: T60, O9-bN; assay: two-hybrid library CCNG1
T60 chain: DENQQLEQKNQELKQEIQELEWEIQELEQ

Binder: DEIAALEAKIAALKAEIAALEAKNAALEG [4H327-AA]
- interaction score [1]: 1.84
- interaction score [2]: -1.29
- interaction score [3]: 1.3
- interaction score [4]: 0.733
- interaction score [5]: -0.747
- interaction score [6]: 0.621
- interaction score [7]: 0.297
- interaction score [8]: -0.644
- interaction score [9]: -0.319
- interaction score [10]: -1.42

Binder: KNSQLKEEIQQLEEENQQLEEKISQLKYG [P6mS]
- interaction score [11]: -2.84
- interaction score [12]: -2.01
- interaction score [13]: -2.67
- interaction score [14]: -2.63
- interaction score [15]: -2.85
- interaction score [16]: -2.37

Binder: DKIAQLKQKNAELKQKNAELEWEIAQLEQ [4H3057-bA]
- interaction score [17]: -0.859
- interaction score [18]: -1.24
- interaction score [19]: -1.24
- interaction score [20]: -1.57
- interaction score [21]: -1.17
- interaction score [22]: -1.12
- interaction score [23]: -1.16
- interaction score [24]: -1.38

Binder: DELAAIEAEAAALEAKAAALKAEAAALEG [APC232-AA]
- interaction score ([25]; mean of both orientations): -1.6
- interaction score [26]: -1.5
- interaction score [27]: -1.21
- interaction score [28]: -1.93
- interaction score [29]: -1.65
- interaction score [30]: -2.15
- interaction score [31]: -1.6
- interaction score [32]: -1.68
- interaction score [33]: -2.34
- interaction score [34]: -2.1
- interaction score [35]: -1.8
- interaction score [36]: -1.47

Binder: DKIQQLKQKNQELKQKNQELEWEIQELEQ [4H3057-bN]
- interaction score [37]: -1.22
- interaction score [38]: -1.2
- interaction score [39]: -0.965
- interaction score [40]: -1.34
- interaction score [41]: -1.17
- interaction score [42]: -2.69
- interaction score [43]: -1.18
- interaction score [44]: -0.673

Binder: DKIQELKKKNEELKRKIWELEKEIQELER [4H3041-bH]
- interaction score [45]: 0.721
- interaction score [46]: 0.592
- interaction score [47]: -1.08
- interaction score [48]: -0.693
- interaction score [49]: -0.833
- interaction score [50]: 0.679
- interaction score [51]: -0.877
- interaction score [52]: -0.497
- interaction score [53]: -0.092
- interaction score [54]: -0.161

Binder: DEAAALEAENAALEAELAAIEAKNAALKG [APC2405-AA]
- interaction score [25]: -1.47
- interaction score [26]: -1.29
- interaction score [27]: -1.01
- interaction score [28]: -1.55
- interaction score [29]: -1.04
- interaction score [30]: -1.52
- interaction score [31]: -1.24
- interaction score [32]: -1.31
- interaction score [33]: 0.786
- interaction score [34]: -1.63
- interaction score [35]: -1.39
- interaction score [36]: -1.81

Binder: DKIQELKKKNEELKRKIWELKKENQELER [O7-bH]
- interaction score [55]: -0.477
- interaction score [56]: 1.5
- interaction score [57]: 0.59

Binder: DKNQELKKKIEELKRENWELEKKIQELKR [O6-bH]
- interaction score [55]: 0.89
- interaction score [56]: 0.914
- interaction score [57]: -0.446

Binder: DENQELEKEIEELERKNWELKKEIQELER [O5-bH]
- interaction score [55]: 0.921
- interaction score [56]: -0.103
- interaction score [57]: -0.548

Binder: DENQQLEQEIQELEQKNQELKWEIQELEQ [O5-bN]
- interaction score [58]: -0.471
- interaction score [59]: -0.445
- interaction score [60]: -1.42

Binder: DKNQQLKQKIQELKQENQELEWKIQELKQ [O6-bN]
- interaction score [58]: -0.589
- interaction score [59]: -0.754
- interaction score [60]: -1.38

Binder: DKIQQLKQKNQELKQKIQELKWENQELEQ [O7-bN]
- interaction score [58]: -1.44
- interaction score [59]: 0.737
- interaction score [60]: -1.53
